Test results taken from publication PMC3045311.

Columns and labels:
[1] = target: Acrophialophora nainiana xylanases
[2] = target: Acrophialophora nainiana xylanases; remark: listed apart in the source
[3] = target: Aspergillus niger xylanases

Substance “Coffea arabica Chitinase-like Xylanase Inhibitor Protein (natural protein)” has an Inhibition (%) of xylanase activity (oat spelt xylan, DNS reagent, Abs 540 nm; enzymes:inhibitor ratio 12:1 w/w) [1] of 56%, an Inhibition (%) of xylanase activity (oat spelt xylan, DNS reagent, Abs 540 nm; 60 μg xylanases, 5 μg CaclXIP, 12:1 w/w, 50°C, 30 min) [2] of 57% and an Inhibition (%) of xylanase activity (oat spelt xylan, DNS reagent, Abs 540 nm; 60 μg xylanases, 5 μg CaclXIP, 12:1 w/w, 50°C, 30 min) [3] of 19.5%.
